Sequences and labels used below:
B1: equine IgG7 N434S mutant (antibody, part only; not given: variable domains, not shown: another chain or arm of the molecule)
constant: ASTTAPKVFPLASHSAATSGSTVALGCLVSSYFPEPVTVSWNSGALTSGVHTFPSVLQSSGLYSLSSMVTVPASSLKSQTYICNVAHPASSTKVDKKIVIKECGGCPTCPECLSVGPSVFIFPPKPKDVLMISRTPTVTCVVVDVGHDFPDVQFNWYVDGVETHTATTEPKQEQNNSTYRVVSILAIQHKDWLSGKEFKCKVNNQALPAPVQKTISKPTGQPREPQVYVLAPHRDELSKNKVSVTCLVKDFYPTDIDIEWKSNGQPEPETKYSTTPAQLDSDGSYFLYSKLTVETNRWQQGTTFTCAVMHEALHSHYTEKSVSKSPGK
B2: equine IgG7 N434T mutant (antibody, part only; not given: variable domains, not shown: another chain or arm of the molecule)
constant: B1 constant with S315T
B3: equine IgG7 D312K mutant (antibody, part only; not given: variable domains, not shown: another chain or arm of the molecule)
constant: B1 constant with D191K, S315N
B4: equine IgG7 D312V mutant (antibody, part only; not given: variable domains, not shown: another chain or arm of the molecule)
constant: B1 constant with D191V, S315N
B5: equine IgG7 Y436R mutant (antibody, part only; not given: variable domains, not shown: another chain or arm of the molecule)
constant: B1 constant with S315N, Y317R
B6: equine IgG7 D312W mutant (antibody, part only; not given: variable domains, not shown: another chain or arm of the molecule)
constant: B1 constant with D191W, S315N
B7: equine IgG7 Y436W mutant (antibody, part only; not given: Variable domains, not shown: another chain or arm of the molecule)
constant: B1 constant with S315N, Y317W
B8: equine IgG7 Y436T mutant (antibody, part only; not given: variable domains, not shown: another chain or arm of the molecule)
constant: B1 constant with S315N, Y317T
B9: equine IgG7 Y436V mutant (antibody, part only; not given: Variable domains, not shown: another chain or arm of the molecule)
constant: B1 constant with S315N, Y317V
B10: equine IgG7 Y436D mutant (antibody, part only; not given: Variable domains, not shown: another chain or arm of the molecule)
constant: B1 constant with S315N, Y317D
B11: equine IgG7 Y436M mutant (antibody, part only; not given: variable domains, not shown: another chain or arm of the molecule)
constant: B1 constant with S315N, Y317M
B12: equine IgG7 D312A mutant (antibody, part only; not given: Variable domains, not shown: another chain or arm of the molecule)
constant: B1 constant with D191A, S315N
B13: equine IgG7 Y436E mutant (antibody, part only; not given: variable domains, not shown: another chain or arm of the molecule)
constant: B1 constant with S315N, Y317E
B14: equine IgG7 D312C mutant (antibody, part only; not given: variable domains, not shown: another chain or arm of the molecule)
constant: B1 constant with D191C, S315N
B15: equine IgG7 Y436K mutant (antibody, part only; not given: variable domains, not shown: another chain or arm of the molecule)
constant: B1 constant with S315N, Y317K
B16: equine IgG7 N434Y mutant (antibody, part only; not given: Variable domains, not shown: another chain or arm of the molecule)
constant: B1 constant with S315Y
B17: equine IgG7 D312F mutant (antibody, part only; not given: Variable domains, not shown: another chain or arm of the molecule)
constant: B1 constant with D191F, S315N
B18: equine IgG7 D312G mutant (antibody, part only; not given: Variable domains, not shown: another chain or arm of the molecule)
constant: B1 constant with D191G, S315N
B19: equine IgG7 D312E mutant (antibody, part only; not given: variable domains, not shown: another chain or arm of the molecule)
constant: B1 constant with D191E, S315N
B20: equine IgG7 N434V mutant (antibody, part only; not given: Variable domains, not shown: another chain or arm of the molecule)
constant: B1 constant with S315V
B21: equine IgG7 Y436S mutant (antibody, part only; not given: variable domains, not shown: another chain or arm of the molecule)
constant: B1 constant with S315N, Y317S
B22: equine IgG7 D312M mutant (antibody, part only; not given: variable domains, not shown: another chain or arm of the molecule)
constant: B1 constant with D191M, S315N
B23: equine IgG7 D312I mutant (antibody, part only; not given: variable domains, not shown: another chain or arm of the molecule)
constant: B1 constant with D191I, S315N
B24: equine IgG7 D312S mutant (antibody, part only; not given: variable domains, not shown: another chain or arm of the molecule)
constant: B1 constant with D191S, S315N
B25: equine IgG7 D312T mutant (antibody, part only; not given: variable domains, not shown: another chain or arm of the molecule)
constant: B1 constant with D191T, S315N
B26: equine IgG7 Y436C mutant (antibody, part only; not given: variable domains, not shown: another chain or arm of the molecule)
constant: B1 constant with S315N, Y317C
B27: equine IgG7 D312P mutant (antibody, part only; not given: variable domains, not shown: another chain or arm of the molecule)
constant: B1 constant with D191P, S315N
B28: equine IgG7 Y436I mutant (antibody, part only; not given: Variable domains, not shown: another chain or arm of the molecule)
constant: B1 constant with S315N, Y317I
B29: equine IgG7 Y436G mutant (antibody, part only; not given: variable domains, not shown: another chain or arm of the molecule)
constant: B1 constant with S315N, Y317G
B30: equine IgG7 Y436Q mutant (antibody, part only; not given: Variable domains, not shown: another chain or arm of the molecule)
constant: B1 constant with S315N, Y317Q
B31: equine IgG7 Y436F mutant (antibody, part only; not given: variable domains, not shown: another chain or arm of the molecule)
constant: B1 constant with S315N, Y317F
B32: equine IgG7 Y436A mutant (antibody, part only; not given: Variable domains, not shown: another chain or arm of the molecule)
constant: B1 constant with S315N, Y317A
B33: equine IgG7 N434W mutant (antibody, part only; not given: variable domains, not shown: another chain or arm of the molecule)
constant: B1 constant with S315W
B34: equine IgG7 D312R mutant (antibody, part only; not given: Variable domains, not shown: another chain or arm of the molecule)
constant: B1 constant with D191R, S315N
B35: equine IgG7 D312N mutant (antibody, part only; not given: Variable domains, not shown: another chain or arm of the molecule)
constant: B1 constant with D191N, S315N
B36: equine IgG7 D312H mutant (antibody, part only; not given: variable domains, not shown: another chain or arm of the molecule)
constant: B1 constant with D191H, S315N
B37: equine IgG7 D312L mutant (antibody, part only; not given: variable domains, not shown: another chain or arm of the molecule)
constant: B1 constant with D191L, S315N
B38: equine IgG7 D312Y mutant (antibody, part only; not given: variable domains, not shown: another chain or arm of the molecule)
constant: B1 constant with D191Y, S315N
B39: equine IgG7 Y436N mutant (antibody, part only; not given: Variable domains, not shown: another chain or arm of the molecule)
constant: B1 constant with S315N, Y317N
B40: equine IgG7 D312Q mutant (antibody, part only; not given: variable domains, not shown: another chain or arm of the molecule)
constant: B1 constant with D191Q, S315N

Residue numbers refer to the chain shown, from its start. Names may count otherwise.

This assay has as its target equine FcRn (large alpha subunit p51) in complex with equine beta-2-microglobulin (equine) (UniProt F6XZ61). The experiment in a line: SPR (Biacore), pH 6. (In SPR one partner is held on a chip, and binding of the other changes the refractive index at the surface.)
Chain of UniProt F6XZ61 (F6XZ61 entry or part of it, one chain of several): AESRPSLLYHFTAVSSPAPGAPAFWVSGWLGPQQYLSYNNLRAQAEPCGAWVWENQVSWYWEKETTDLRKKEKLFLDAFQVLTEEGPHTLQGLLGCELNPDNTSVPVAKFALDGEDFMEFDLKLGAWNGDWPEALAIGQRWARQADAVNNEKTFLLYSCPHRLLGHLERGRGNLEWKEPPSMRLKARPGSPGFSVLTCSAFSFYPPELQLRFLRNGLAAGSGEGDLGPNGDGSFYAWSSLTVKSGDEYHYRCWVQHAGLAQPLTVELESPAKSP
As usually defined, the Kd is a measure of binding affinity in units of concentration. High values mean lower affinity, low ones higher affinity. B1 returned a Kd of 114 nM. In turn, B2 came in with a Kd of 159 nM. On to B3, for which the Kd came out at 16.4 nM.

The molecule B4 yielded a Kd of 11.3 nM. Next, B5: 7.7 nM. Consider B6, for which the Kd was determined as 13.2 nM. This Kd is about 1.7-fold higher than that of the molecule before. B7: the Kd is 28.2 nM.

In the case of B8, the Kd came to 36.2 nM. Molecule B9 registered a Kd of 6.7 nM. In the case of B10, the Kd worked out at 11.6 nM. Next, B11: 5.5 nM. With B12, the Kd turned out to be 17.6 nM. B13 registered a Kd of 13.4 nM.

Regarding B14, the equilibrium dissociation constant (Kd) worked out at 26.5 nM. Regarding B15, the Kd was determined as 74 nM.

B16 displayed a Kd of 3.7 nM. Molecule B17 gave a Kd of 8.6 nM. As to B18, the Kd came to 38.4 nM. The molecule B19 showed an equilibrium dissociation constant (Kd) of 42.5 nM. On to B20, for which the Kd was determined as 6700 nM. Next, B21: 169 nM; B22: 6.1 nM. The molecule B23 gave a Kd of 15.2 nM. Then B24, with 9.6 nM. The molecule B25 gave a Kd of 9.9 nM. As to B26, the Kd was 12.5 nM. The Kd values of the last two molecules are within 1.5-fold of each other.

B27 displayed a Kd of 8 nM. As to B28, the Kd worked out at 25.1 nM.

B29 displayed a Kd of 51.7 nM. B30 returned a Kd of 9.1 nM. Molecule B31 showed a Kd of 9.3 nM. For the molecule B32, the dissociation constant (Kd) stood at 13.3 nM. Then B33, with 1.3 nM; and B34, with 9 nM. Molecule B35 returned a Kd of 25.3 nM. With B36, the Kd was determined as 10.4 nM. Regarding B37, the Kd was 5.7 nM.

As for B38, the Kd was found to be 9.4 nM. The molecule B39 yielded a Kd of 65.5 nM. Then B40, with 13.6 nM.

The record behind these values is patent US20260070987A1.
